Reference: paper PMC3093450 (Nature, 2011)

T1: His6-Sec24p (yeast, UniProt P40482 1-926)
T1 sequence (looked up): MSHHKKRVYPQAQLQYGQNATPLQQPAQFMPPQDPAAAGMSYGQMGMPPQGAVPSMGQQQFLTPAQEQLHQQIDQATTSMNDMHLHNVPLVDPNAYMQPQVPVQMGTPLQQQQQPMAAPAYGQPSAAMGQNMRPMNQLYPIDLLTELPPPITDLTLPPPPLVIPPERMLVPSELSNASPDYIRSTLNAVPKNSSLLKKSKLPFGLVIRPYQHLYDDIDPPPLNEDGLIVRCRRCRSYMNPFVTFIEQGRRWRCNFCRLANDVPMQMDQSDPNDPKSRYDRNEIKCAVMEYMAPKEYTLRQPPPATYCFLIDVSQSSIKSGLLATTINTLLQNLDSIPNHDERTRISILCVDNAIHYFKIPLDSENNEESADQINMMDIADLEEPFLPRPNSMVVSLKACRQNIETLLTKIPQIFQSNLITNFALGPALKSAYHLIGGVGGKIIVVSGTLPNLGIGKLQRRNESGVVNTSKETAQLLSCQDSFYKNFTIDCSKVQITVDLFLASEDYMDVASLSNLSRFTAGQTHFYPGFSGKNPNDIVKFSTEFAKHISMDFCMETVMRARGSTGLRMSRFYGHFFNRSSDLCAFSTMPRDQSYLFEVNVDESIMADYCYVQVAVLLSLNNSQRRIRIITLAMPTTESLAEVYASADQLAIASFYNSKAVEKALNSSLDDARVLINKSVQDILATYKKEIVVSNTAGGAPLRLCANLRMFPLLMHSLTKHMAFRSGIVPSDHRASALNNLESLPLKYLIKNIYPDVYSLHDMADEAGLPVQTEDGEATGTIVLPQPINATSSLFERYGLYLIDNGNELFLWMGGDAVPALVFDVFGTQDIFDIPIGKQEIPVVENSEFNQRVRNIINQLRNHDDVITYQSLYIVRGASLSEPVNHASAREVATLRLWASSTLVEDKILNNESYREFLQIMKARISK

B1: GST-Sec23p (natural protein, yeast)
chain: DFETNEDINGVRFTWNVFPSTRSDANSNVVPVGCLYTPLKEYDELNVAPYNPVVCSGPHCKSILNPYCVIDPRNSSWSCPICNSRNHLPPQYTNLSQENMPLELQSTTIEYITNKPVTVPPIFFFVVDLTSETENLDSLKESIITSLSLLPPNALIGLITYGNVVQLHDLSSETIDRCNVFRGDREYQLEALTEMLTGQKPTGPGGAASHLPNAMNKVTPFSLNRFFLPLEQVEFKLNQLLENLSPDQWSVPAGHRPLRATGSALNIASLLLQGCYKNIPARIILFASGPGTVAPGLIVNSELKDPLRSHHDIDSDHAQHYKKACKFYNQIAQRVAANGHTVDIFAGCYDQIGMSEMKQLTDSTGGVLLLTDAFSTAIFKQSYLRLFAKDEEGYLKMAFNGNMAVKTSKDLKVQGLIGHASAVKKTDANNISESEIGIGATSTWKMASLSPYHSYAIFFEIANTAANSNPMMSAPGSADRPHLAYTQFITTYQHSSGTNRIRVTTVANQLLPFGTPAIAASFDQEAAAVLMARIAVHKAETDDGADVIRWLDRTLIKLCQKYADYNKDDPQSFRLAPNFSLYPQFTYYLRRSQFLSVFNNSPDETAFYRHIFTREDTTNSLIMIQPTLTSFSMEDDPQPVLLDSISVKPNTILLLDTFFFILIYHGEQIAQWRKAGYQDDPQYADFKALLEEPKLEAAELLVDRFPLPRFIDTEAGGSQARFLLSKLNPSDNYQDMARGGSTIVLTDDVSLQNFMTHLQQVAVSGQA

Legend:
His6-Sec24p = target: T1, His6-Sec24p; assay: pull-down
GST-Sec23p = target: B1; assay: pull-down

| Binder | binding result (His6-Sec24p) | Kd (GST-Sec23p) |
| --- | --- | --- |
| GST-Sec23p S742D (natural protein, yeast) DFETNEDINGVRFTWNVFPSTRSDANSNVVPVGCLYTPLKEYDELNVAPYNPVVCSGPHCKSILNPYCVIDPRNSSWSCPICNSRNHLPPQYTNLSQENMPLELQSTTIEYITNKPVTVPPIFFFVVDLTSETENLDSLKESIITSLSLLPPNALIGLITYGNVVQLHDLSSETIDRCNVFRGDREYQLEALTEMLTGQKPTGPGGAASHLPNAMNKVTPFSLNRFFLPLEQVEFKLNQLLENLSPDQWSVPAGHRPLRATGSALNIASLLLQGCYKNIPARIILFASGPGTVAPGLIVNSELKDPLRSHHDIDSDHAQHYKKACKFYNQIAQRVAANGHTVDIFAGCYDQIGMSEMKQLTDSTGGVLLLTDAFSTAIFKQSYLRLFAKDEEGYLKMAFNGNMAVKTSKDLKVQGLIGHASAVKKTDANNISESEIGIGATSTWKMASLSPYHSYAIFFEIANTAANSNPMMSAPGSADRPHLAYTQFITTYQHSSGTNRIRVTTVANQLLPFGTPAIAASFDQEAAAVLMARIAVHKAETDDGADVIRWLDRTLIKLCQKYADYNKDDPQSFRLAPNFSLYPQFTYYLRRSQFLSVFNNSPDETAFYRHIFTREDTTNSLIMIQPTLTSFSMEDDPQPVLLDSISVKPNTILLLDTFFFILIYHGEQIAQWRKAGYQDDPQYADFKALLEEPKLEAAELLVDRFPLPRFIDTEAGGSQARFLLSKLNPSDNYQDMARGGDTIVLTDDVSLQNFMTHLQQVAVSGQA | binds |  |
| GST-Sec23p T747E (natural protein, yeast) DFETNEDINGVRFTWNVFPSTRSDANSNVVPVGCLYTPLKEYDELNVAPYNPVVCSGPHCKSILNPYCVIDPRNSSWSCPICNSRNHLPPQYTNLSQENMPLELQSTTIEYITNKPVTVPPIFFFVVDLTSETENLDSLKESIITSLSLLPPNALIGLITYGNVVQLHDLSSETIDRCNVFRGDREYQLEALTEMLTGQKPTGPGGAASHLPNAMNKVTPFSLNRFFLPLEQVEFKLNQLLENLSPDQWSVPAGHRPLRATGSALNIASLLLQGCYKNIPARIILFASGPGTVAPGLIVNSELKDPLRSHHDIDSDHAQHYKKACKFYNQIAQRVAANGHTVDIFAGCYDQIGMSEMKQLTDSTGGVLLLTDAFSTAIFKQSYLRLFAKDEEGYLKMAFNGNMAVKTSKDLKVQGLIGHASAVKKTDANNISESEIGIGATSTWKMASLSPYHSYAIFFEIANTAANSNPMMSAPGSADRPHLAYTQFITTYQHSSGTNRIRVTTVANQLLPFGTPAIAASFDQEAAAVLMARIAVHKAETDDGADVIRWLDRTLIKLCQKYADYNKDDPQSFRLAPNFSLYPQFTYYLRRSQFLSVFNNSPDETAFYRHIFTREDTTNSLIMIQPTLTSFSMEDDPQPVLLDSISVKPNTILLLDTFFFILIYHGEQIAQWRKAGYQDDPQYADFKALLEEPKLEAAELLVDRFPLPRFIDTEAGGSQARFLLSKLNPSDNYQDMARGGSTIVLEDDVSLQNFMTHLQQVAVSGQA | binds |  |
| B1 | binds |  |
| GST-Sec23p S742D/T747E (natural protein, yeast) DFETNEDINGVRFTWNVFPSTRSDANSNVVPVGCLYTPLKEYDELNVAPYNPVVCSGPHCKSILNPYCVIDPRNSSWSCPICNSRNHLPPQYTNLSQENMPLELQSTTIEYITNKPVTVPPIFFFVVDLTSETENLDSLKESIITSLSLLPPNALIGLITYGNVVQLHDLSSETIDRCNVFRGDREYQLEALTEMLTGQKPTGPGGAASHLPNAMNKVTPFSLNRFFLPLEQVEFKLNQLLENLSPDQWSVPAGHRPLRATGSALNIASLLLQGCYKNIPARIILFASGPGTVAPGLIVNSELKDPLRSHHDIDSDHAQHYKKACKFYNQIAQRVAANGHTVDIFAGCYDQIGMSEMKQLTDSTGGVLLLTDAFSTAIFKQSYLRLFAKDEEGYLKMAFNGNMAVKTSKDLKVQGLIGHASAVKKTDANNISESEIGIGATSTWKMASLSPYHSYAIFFEIANTAANSNPMMSAPGSADRPHLAYTQFITTYQHSSGTNRIRVTTVANQLLPFGTPAIAASFDQEAAAVLMARIAVHKAETDDGADVIRWLDRTLIKLCQKYADYNKDDPQSFRLAPNFSLYPQFTYYLRRSQFLSVFNNSPDETAFYRHIFTREDTTNSLIMIQPTLTSFSMEDDPQPVLLDSISVKPNTILLLDTFFFILIYHGEQIAQWRKAGYQDDPQYADFKALLEEPKLEAAELLVDRFPLPRFIDTEAGGSQARFLLSKLNPSDNYQDMARGGDTIVLEDDVSLQNFMTHLQQVAVSGQA | binds |  |
| His6-Hrr25p (enzyme, yeast, UniProt P29295 1-494, looked up) MDLRVGRKFRIGRKIGSGSFGDIYHGTNLISGEEVAIKLESIRSRHPQLDYESRVYRYLSGGVGIPFIRWFGREGEYNAMVIDLLGPSLEDLFNYCHRRFSFKTVIMLALQMFCRIQYIHGRSFIHRDIKPDNFLMGVGRRGSTVHVIDFGLSKKYRDFNTHRHIPYRENKSLTGTARYASVNTHLGIEQSRRDDLESLGYVLIYFCKGSLPWQGLKATTKKQKYDRIMEKKLNVSVETLCSGLPLEFQEYMAYCKNLKFDEKPDYLFLARLFKDLSIKLEYHNDHLFDWTMLRYTKAMVEKQRDLLIEKGDLNANSNAASASNSTDNKSETFNKIKLLAMKKFPTHFHYYKNEDKHNPSPEEIKQQTILNNNAASSLPEELLNALDKGMENLRQQQPQQQVQSSQPQPQPQQLQQQPNGQRPNYYPEPLLQQQQRDSQEQQQQVPMATTRATQYPPQINSNNFNTNQASVPPQMRSNPQQPPQDKPAGQSIWL |  | 43 nM |
